Kd data for 1 molecule are collected here from publication PMC10197057 (Microbial Cell Factories, 2023).

By Kd is commonly meant the concentration at which binding is half-saturated. A high value points to weaker binding.

The experiment deals with T1, lysozyme from chicken egg white (Gallus gallus, UniProt P00698).
T1 construct: lysozyme from chicken egg white (Sigma-Aldrich L4919); source: bought: Sigma-Aldrich (L4919)
Briefly: BLI; BLItz system; nanobody (100 mg/L) loaded via His-tag on Anti-Penta-HIS (HIS1K) sensor; dilution series of antigen in solution; association 180 s, dissociation 300 s; sensor hydrated in PBS-T (0.1% Tween-20); reference without antigen; global fitting. The conditions noted are these: both partners purified. In general terms: Biolayer interferometry detects binding as a change in optical thickness at a sensor tip.

T1 sequence (P00698 19-147): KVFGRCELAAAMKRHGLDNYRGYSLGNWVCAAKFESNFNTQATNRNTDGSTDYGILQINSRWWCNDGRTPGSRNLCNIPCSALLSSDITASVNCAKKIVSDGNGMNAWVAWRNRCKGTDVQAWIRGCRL

B1: monovalent antilysozyme nanobody 1ZVH (VHH)
VHH: DVQLVESGGGSVQAGGSLRLSCAASGYIASINYLGWFRQAPGKEREGVAAVSPAGGTPYYADSVKGRFTVSLDNAENTVYLQMNSLKPEDTALYYCAAARQGWYIPLNSYGYNYWGQGTQVTVSS
notes: anti-lysozyme camelid VHH; also called anti-lysozyme VHH; not shown: CBH2 secretory signal, CBD-carrier polypeptide and KEX2 linker (RDKR), N-terminal, cleaved; His6, C-terminal, kept
Regarding B1, the Kd stood at 1.5 nM. This counts as single-digit nanomolar.
